The text below walks through data of article PMC12127727, “Double the Double: Revisiting BCL11B's Multimerization” (Proteins, 2025).

Data set [1] concerns the molecule itself. Kind of data set: SEC; analytical size exclusion chromatography of the purified recombinant constructs; stoichiometric factors calculated from elution volumes with a calibration curve (Figure S1); rough estimate of molecular weights.
Data set [2] concerns the molecule itself. Kind of data set: cross-linking; constructs incubated with BS(PEG)5 (bis-succinimide ester-activated PEG, 21.7 Å), then reducing 16% tricine SDS-PAGE of crosslinked and control samples.

Broadly, the stoichiometry N is a count of units in the complex or per binding partner.

B1: BCL11B_(42–94) WT (N-terminal wild-type zinc finger domain, ZF0) (domain or fragment, human, UniProt Q9C0K0 42-94, looked up)
chain: SGLGLMVGGPDPDLLTCGQCQMNFPLGDILVFIEHKRKQCGGSLGACYDKALD
notes: B Cell Lymphoma/Leukemia 11B (BCL11B), human, residues 42-94, atypical CCHC zinc finger domain ZF0; source: E. coli, recombinantly expressed, purified
As to B1, the entries for the “stoichiometry N” value in data set [1] and in data set [2] were 7 and 4, respectively.

B2: BCL11B_(42–94) I74A (domain or fragment, human, UniProt Q9C0K0 42-94, looked up)
chain: SGLGLMVGGPDPDLLTCGQCQMNFPLGDILVFAEHKRKQCGGSLGACYDKALD
notes: BCL11B, human, residues 42-94 (ZF0) with I74A; CD spectra indicate an incomplete zinc finger fold; source: E. coli, recombinantly expressed, purified
Turning to B2, in data set [2], the “stoichiometry N” value came to 2.

B3: BCL11B_(42–94) K77A (domain or fragment, human, UniProt Q9C0K0 42-94, looked up)
chain: SGLGLMVGGPDPDLLTCGQCQMNFPLGDILVFIEHARKQCGGSLGACYDKALD
notes: BCL11B, human, residues 42-94 (ZF0) with K77A; also called lysine mutant K77A; source: E. coli, recombinantly expressed, purified
In the case of B3, the “stoichiometry N” value in data set [2] is 2.

B4: BCL11B_(42–94) I70A (domain or fragment, human, UniProt Q9C0K0 42-94, looked up)
chain: SGLGLMVGGPDPDLLTCGQCQMNFPLGDALVFIEHKRKQCGGSLGACYDKALD
notes: BCL11B, human, residues 42-94 (ZF0) with I70A; CD spectra indicate an incomplete zinc finger fold; source: E. coli, recombinantly expressed, purified
For the protein B4, in data set [2], the “stoichiometry N” value was 2.

B5: BCL11B_(42–94) C81H (domain or fragment, human, UniProt Q9C0K0 42-94, looked up)
chain: SGLGLMVGGPDPDLLTCGQCQMNFPLGDILVFIEHKRKQHGGSLGACYDKALD
notes: BCL11B, human, residues 42-94 (ZF0) with C81H, which turns the CCHC zinc finger into a C2H2 zinc finger; also called zinc finger mutant C81H; source: E. coli, recombinantly expressed, purified
Take B5: the “stoichiometry N” value in data set [2] turned out to be 4.

B6: BCL11B_(42–94) L71A/V72A (domain or fragment, human, UniProt Q9C0K0 42-94, looked up)
chain: SGLGLMVGGPDPDLLTCGQCQMNFPLGDIAAFIEHKRKQCGGSLGACYDKALD
notes: BCL11B, human, residues 42-94 (ZF0) with L71A and V72A; also called double mutant L71A/V72A; source: E. coli, recombinantly expressed, purified
Regarding B6, the “stoichiometry N” value in data set [2] was 4.

B7: BCL11B_(42–220) WT (domain or fragment, human, UniProt Q9C0K0 42-220, looked up)
chain: SGLGLMVGGPDPDLLTCGQCQMNFPLGDILVFIEHKRKQCGGSLGACYDKALDKDSPPPSSRSELRKVSEPVEIGIQVTPDEDDHLLSPTKGICPKQENIAGPCRPAQLPAVAPIAASSHPHSSVITSPLRALGALPPCLPLPCCSARPVSGDGTQGEGQTEAPFGCQCQLSGKDEPSS
notes: BCL11B, human, residues 42-220: ZF0 extended up until the first C2H2 zinc finger domain (ZF1); source: E. coli, recombinantly expressed, purified
For the protein B7, in data set [1], the “stoichiometry N” value is 16.6.

B8: BCL11B_(42–426) WT (domain or fragment, human, UniProt Q9C0K0 42-426, looked up)
chain: SGLGLMVGGPDPDLLTCGQCQMNFPLGDILVFIEHKRKQCGGSLGACYDKALDKDSPPPSSRSELRKVSEPVEIGIQVTPDEDDHLLSPTKGICPKQENIAGPCRPAQLPAVAPIAASSHPHSSVITSPLRALGALPPCLPLPCCSARPVSGDGTQGEGQTEAPFGCQCQLSGKDEPSSYICTTCKQPFNSAWFLLQHAQNTHGFRIYLEPGPASSSLTPRLTIPPPLGPEAVAQSPLMNFLGDSNPFNLLRMTGPILRDHPGFGEGRLPGTPPLFSPPPRHHLDPHRLSAEEMGLVAQHPSAFDRVMRLNPMAIDSPAMDFSRRLRELAGNSSTPPPVSPGRGNPMHRLLNPFQPSPKSPFLSTPPLPPMPPGGTPPPQPPAKS
notes: source: E. coli, recombinantly expressed, purified
B8: the “stoichiometry N” value in data set [1] was 4.
